Results as given in PMC2953525, “Subtle Alterations in PCNA-Partner Interactions Severely Impair DNA Replication and Repair” (PLoS Biology, 2010).

B1: pol30-Msh6E6: PCNA mutant evolved for Msh6, IDCL sequence DYDKDLLKIIEL (protein)
chain: MLEAKFEEASLFKRIIDGFKDCVQLVNFQCKEDGIIAQAVDDSRVLLVSLEIGVEAFQEYRCDHPVTLGMDLTSLSKILRCGNNTDTLTLIADNTPDSIILLFEDTKKDRIAEYSLKLMDYDKDLLKIIELQYDSTLSLPSSEFSKIVRDLSQLSDSINIMITKETIKFVADGDIGSGSVIIKPFVDMEHPETSIKLEMDQPVDLTFGAKYLLDIIKGSSLSDRVGIRLSSEAPALFQFDLKSGFLQFFLAPKFNDEE
modifications: left off: Gal4 activation domain, end not stated, kept
B2: pol30-Pol32E5: PCNA mutant evolved for Pol32, IDCL sequence DADNDFLKISEL (protein)
chain: MLEAKFEEASLFKRIIDGFKDCVQLVNFQCKEDGIIAQAVDDSRVLLVSLEIGVEAFQEYRCDHPVTLGMDLTSLSKILRCGNNTDTLTLIADNTPDSIILLFEDTKKDRIAEYSLKLMDADNDFLKISELQYDSTLSLPSSEFSKIVRDLSQLSDSINIMITKETIKFVADGDIGSGSVIIKPFVDMEHPETSIKLEMDQPVDLTFGAKYLLDIIKGSSLSDRVGIRLSSEAPALFQFDLKSGFLQFFLAPKFNDEE
modifications: left off: Gal4 activation domain, end not stated, kept
B3: pol30-79: previously studied PCNA mutant with decreased partner binding, IDCL sequence DIDADFAKAEEL (protein)
chain: MLEAKFEEASLFKRIIDGFKDCVQLVNFQCKEDGIIAQAVDDSRVLLVSLEIGVEAFQEYRCDHPVTLGMDLTSLSKILRCGNNTDTLTLIADNTPDSIILLFEDTKKDRIAEYSLKLMDIDADFAKAEELQYDSTLSLPSSEFSKIVRDLSQLSDSINIMITKETIKFVADGDIGSGSVIIKPFVDMEHPETSIKLEMDQPVDLTFGAKYLLDIIKGSSLSDRVGIRLSSEAPALFQFDLKSGFLQFFLAPKFNDEE
modifications: left off: Gal4 activation domain, end not stated, kept
B4: pol30-Rad27E6: PCNA mutant evolved for Rad27, IDCL sequence DGDYDILKIREL (protein)
chain: MLEAKFEEASLFKRIIDGFKDCVQLVNFQCKEDGIIAQAVDDSRVLLVSLEIGVEAFQEYRCDHPVTLGMDLTSLSKILRCGNNTDTLTLIADNTPDSIILLFEDTKKDRIAEYSLKLMDGDYDILKIRELQYDSTLSLPSSEFSKIVRDLSQLSDSINIMITKETIKFVADGDIGSGSVIIKPFVDMEHPETSIKLEMDQPVDLTFGAKYLLDIIKGSSLSDRVGIRLSSEAPALFQFDLKSGFLQFFLAPKFNDEE
modifications: left off: Gal4 activation domain, end not stated, kept
B5: pol30-Rad30E2: PCNA mutant evolved for Rad30, IDCL sequence DDDWDFLKILEL (protein)
chain: MLEAKFEEASLFKRIIDGFKDCVQLVNFQCKEDGIIAQAVDDSRVLLVSLEIGVEAFQEYRCDHPVTLGMDLTSLSKILRCGNNTDTLTLIADNTPDSIILLFEDTKKDRIAEYSLKLMDDDWDFLKILELQYDSTLSLPSSEFSKIVRDLSQLSDSINIMITKETIKFVADGDIGSGSVIIKPFVDMEHPETSIKLEMDQPVDLTFGAKYLLDIIKGSSLSDRVGIRLSSEAPALFQFDLKSGFLQFFLAPKFNDEE
modifications: left off: Gal4 activation domain, end not stated, kept
B6: pol30-Rad30E9: PCNA mutant evolved for Rad30, IDCL sequence DNDWDFLKIDEL (protein)
chain: MLEAKFEEASLFKRIIDGFKDCVQLVNFQCKEDGIIAQAVDDSRVLLVSLEIGVEAFQEYRCDHPVTLGMDLTSLSKILRCGNNTDTLTLIADNTPDSIILLFEDTKKDRIAEYSLKLMDNDWDFLKIDELQYDSTLSLPSSEFSKIVRDLSQLSDSINIMITKETIKFVADGDIGSGSVIIKPFVDMEHPETSIKLEMDQPVDLTFGAKYLLDIIKGSSLSDRVGIRLSSEAPALFQFDLKSGFLQFFLAPKFNDEE
modifications: left off: Gal4 activation domain, end not stated, kept

Columns and labels:
[1] = test system: CAN1 gene; assay: Spontaneous mutation rate, CAN1 reporter assay, fluctuation analysis; assay type: cell-based, yeast; details: for Fold Increase Relative to WT (mutation rate, CAN1 locus) / Mutation Rate (CAN1 locus): Table 2; for Mutation Rate (CAN1 locus): median, brackets = 95% confidence interval, at least 25 independent determinations; for Spontaneous Mutation Rate Can^R (Fold Increase): Table 1, compared to the WT POL30 strain
Source text: It was previously shown that PCNA contains another site of regulation (i.e. K164) that is modulated by ubiquitination or SUMOylation (Figure 1B) and that is crucial for the recruitment of TLS polymerases,[37]. To test whether the K164 regulatory site is active in the PCNA mutant strains, we examined the spontaneous mutation rate in these strains (Table 1). Increase in spontaneous mutation rate can indicate the recruitment of TLS polymerases to PCNA through K164 ubiquitination,[37]. Alternatively, these mutants can indirectly affect the spontaneous mutation rate by reducing DNA replication processivity and causing replication fork stalling, thereby leading to TLS recruitment. These mutants can also indirectly alter Pol-δ or Pol-ε proofreading leading to TLS recruitment. We measured the spontaneous mutation rate using the CAN1 reporter assay by monitoring the ability of the PCNA mutant strains to grow in the presence of canavanine, a toxic analogue of arginine. […] To examine whether Polζ, the major TLS polymerase,[37], is recruited in vivo to PCNA mutants showing increased affinity for Rad27 and Pol32 (pol30-Rad27E6 and pol30-Pol32E5, Table 1) upon K164 ubiquitination, we measured the spontaneous mutation rates of these mutant strains on the background of either mutated rev3 encoding the catalytic subunit of Polζ or mutated rad18 encoding the K164 ubiquitin ligase or K164R mutation (Figure 7, Table 2).
Novel haploids containing PCNA mutants were generated using the plasmid shuffling method. Briefly, a pol30::KanMX magic marker heterozygote diploid strain BY4743 (Open Biosystem) was transformed with plasmid pRS316-POL30. Following dissection of the diploid, a haploid containing the CAN+ gene and plasmid pRS316-POL30 as a sole source of PCNA was generated. This host strain was transformed with selected pRS315-pol30 mutants, plated on SC-Ura-Leu plates, followed by replica plating to SC-Leu+5FOA plates. Haploids, containing PCNA mutants as a sole source, were further verified by plating on either SC-Leu or SC-Ura plates. For testing selected PCNA mutants, a haploid containing rad27::HYG, rad30::HYG, pol32::HYG, msh6::HYG, or ung1::HYG were generated using plasmid pAG32 by conventional genetic approaches. Growth of the PCNA mutant strains in the presence of 120 mM HU (Toronto Research Chemicals) or 0.02% MMS (Sigma) was performed as described. To examine the effects of partner overexpression on pol30 mutant strains, these strains were transformed with various plasmids containing GST-tagged PCNA partner encoding genes under the control of a GAL1/10 inducible promoter, as previously described. Overnight cultures were plated in serial dilutions on SC-Ura containing either glucose or galactose with or without DNA-damaging agents, as described above.
The mutation rates for the different pol30 mutant strains described in this study were determined by fluctuation test analysis using the Lea and Coulson method,[48]. The different strains were plated as single colonies on SC-Leu plates and allowed to grow for 3 d at 30°C. At least 25 single colonies from each strain were excised from the plate and resuspended in 1 ml of sterile water to an O.D600 of 0.7. Appropriate dilutions of the cells were then plated on SC-Leu and SC-Leu-Arg+canavanine ([…]) to obtain the number of viable cells (Nt) and the number of canavanine-resistant cells (r), respectively. Using the Lea and Coulson method, the number of mutations (m) per colony was derived from the number of canavanine resistant-colonies (r) across parallel cultures, using the following equation: […]. The m values were then used to calculate the mutation rate, M, using the following equation: M = m/Nt, where Nt is the average number of viable cells per plating. The different M values were sorted to obtain the median. […]

[2] = test system: Apn2; assay: Yeast two hybrid (Y2H) analysis of PCNA-partner interaction; assay type: binding; design: key: ++: major increase in growth; +: moderate increase in growth; similar growth as the WT PCNA-expressing cells; -: minor decrease in growth; --: moderate decrease in growth; ---: major decrease in growth; details: spotting onto selective agar plates; PCNA fused to AD, partner to BD
Protocol: (§1) Y2H analysis was performed using the Yeast Two Hybrid Phagemid vector kit (Stratagene), following the manufacturer's instructions. The pAD-PCNA-WT/mutant plasmids were used as bait while plasmids encoding 12 different PCNA partners (Table 1 and Table S1) were used as prey. The YRG2 host strain (Stratagene) was cotransformed with pAD-PCNA WT/mutant and pBD-partner plasmids in all possible combinations using the LiAC method. Single transformants were grown in liquid SC-Leu-Trp to O.D600 10, washed twice with DDW, and diluted to an initial OD600 of 0.3. A series of 10-fold serial dilutions was then spotted onto selective SC-Leu-Trp-His plates and incubated at 30°C for 3 d. For quantitative Y2H, the generation time of the indicated mutants and their respective partners were calculated from their growth curves in liquid SC-Leu-Trp-His media. Cells were grown overnight in SC-Leu-Trp, washed twice with ddH2O, and diluted by a factor of 1∶50 into 10 ml of pre-warmed SC-Leu-Trp-His. O.D600 measurements of the cultures were taken at the indicated time; the generation time (τ) was calculated from the growth curves according to the equation ODt = OD0×2^t/τ. The generation time calculated for each culture is an average of at least 3 independent experiments.
(§2) Table S1: Yeast two hybrid analysis of binding of selected PCNA mutants with seven additional partners not described in Table 1 of the main text. […]
(§3) pol30-Rad30E2 WT WT WT WT WT WT - pol30-Rad30E9 WT WT WT WT WT WT WT pol30-Rad27E6 WT WT WT WT + WT WT pol30-Rad27E31 WT WT WT WT + WT WT pol30-Rad27L1 WT -- WT WT -- WT WT pol30-Rad27L2 WT -- WT WT -- WT WT pol30-Pol32E5 WT WT WT WT WT WT WT pol30-Pol32E9 - WT WT WT WT WT WT pol30-Msh6E2 WT WT + WT WT WT WT pol30-Msh6E6 WT WT ++ WT WT WT WT pol30-Ung1E3 WT - WT WT WT WT WT pol30-79 --- --- --- - --- --- --- a PCNA mutants with enhanced affinities for the different target partners (see Table 1, text). b PCNA mutants were fused to the activating domain (AD), while the different partners were fused to the DNA-binding domain (BD). The growth of the resulting Y2H strains was compared to the growth of the WT PCNA-expressing strain following spotting onto selective agar plates (see Material and Methods). Growth rates on the agar plates were scored and tabulated as follows: ++ major increase in growth; + moderate increase in growth; WT-similar growth as the WT PCNA-expressing cells; - minor decrease in growth; -- moderate decrease in growth; --- major decrease in growth. ND-Not determined.

[3] = test system: Rfc1; assay: as above; assay type: binding; design: key: ++: major increase in growth; +: moderate increase in growth; similar growth as the WT PCNA-expressing cells; -: minor decrease in growth; --: moderate decrease in growth; ---: major decrease in growth; details: spotting onto selective agar plates; PCNA fused to AD, partner to BD
Protocol: as §1, §2, §3

Molecule	Fold Increase Relative to WT (mutation rate, CAN1 locus) [1]	Mutation Rate (CAN1 locus) [1]	Y2H growth relative to WT PCNA-expressing strain: Apn2 [2]	Y2H growth relative to WT PCNA-expressing strain: Rfc1 [3]	Spontaneous Mutation Rate Can^R (Fold Increase) [1]
POL30: wild-type yeast PCNA (POL30), IDCL sequence DIDADFLKIEEL	1 fold	1.5×10^−7 [1.5, 2.2]			
B1			WT	WT	4.1 fold
B2	13 fold		WT	WT	13.3 fold
B3			---	-	2.2 fold
B4		1.2×10^−6 [8.0, 13.9]	WT	WT	8 fold
B5			-	WT	10 fold
B6			WT	WT	15.3 fold
